# B1: E3 ubiquitin-protein ligase SMURF2 (Mus musculus), A2A5Z6 (parent)
# chain: MSNPGGRRNGPVKLRLTVLCAKNLVKKDFFRLPDPFAKVVVDGSGQCHSTDTVKNTLDPKWNQHYDLYIGKSDSVTISVWNHKKIHKKQGAGFLGCVRLLSNAINRLKDTGYQRLDLCKLGPNDNDTVRGQIVVSLQSRDRIGTGGQVVDCSRLFDNDLPDGWEERRTASGRIQYLNHITRTTQWERPTRPASEYSSPGRPLSCFVDENTPITGTNGATCGHSSDPRLAERRVRSQRHRNYMSRTHLHTPPDLPEGYEQRTTQQGQVYFLHTQTGVSTWHDPRVPRDLSNINCEELGPLPPGWEIRNTATGRVYFVDHNNRTTQFTDPRLSANLHLVLNRQNQLKDQQQQQVVPLCPDDTECLTVPRYKRDLVQKLKILRQELSQQQPQAGHCRIEVSREEIFEESYRQVMKMRPKDLWKRLMIKFRGEEGLDYGGVAREWLYLLSHEMLNPYYGLFQYSRDDIYTLQINPDSAVNPEHLSYFHFVGRIMGMAVFHGHYIDGGFTLPFYKQLLGKSITLDDMELVDPDLHNSLVWILENDITGVLDHTFCVEHNAYGEIIQHELKPNGKSIPVTEENKKEYVRLYVNWRFLRGIEAQFLALQKGFNEVIPQHLLKTFDEKELELIICGLGKIDVSDWKVNTRLKHCTPDSNVVKWFWKAVEFFDEERRARLLQFVTGSSRVPLQGFKALQGAAGPRLFTIHQIDACTNNLPKAHTCFNRIDIPPYESYEKLYEKLLTAIEETCGFAVE
# partner: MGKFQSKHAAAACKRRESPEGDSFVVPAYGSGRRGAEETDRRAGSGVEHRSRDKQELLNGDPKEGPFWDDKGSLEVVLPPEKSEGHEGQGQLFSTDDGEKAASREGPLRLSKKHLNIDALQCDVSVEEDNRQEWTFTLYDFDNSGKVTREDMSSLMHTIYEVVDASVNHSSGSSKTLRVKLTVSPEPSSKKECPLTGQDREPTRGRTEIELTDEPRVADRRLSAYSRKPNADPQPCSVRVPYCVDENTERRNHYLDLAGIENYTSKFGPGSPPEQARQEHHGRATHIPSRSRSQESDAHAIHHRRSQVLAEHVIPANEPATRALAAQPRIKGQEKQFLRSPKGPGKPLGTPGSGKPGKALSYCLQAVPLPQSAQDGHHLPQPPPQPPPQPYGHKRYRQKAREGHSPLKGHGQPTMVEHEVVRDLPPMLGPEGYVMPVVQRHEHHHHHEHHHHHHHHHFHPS
# B2: Segment polarity protein dishevelled homolog DVL-2 (Homo sapiens), O14641 (parent)
# chain: MAGSSTGGGGVGETKVIYHLDEEETPYLVKIPVPAERITLGDFKSVLQRPAGAKYFFKSMDQDFGVVKEEISDDNARLPCFNGRVVSWLVSSDNPQPEMAPPVHEPRAELAPPAPPLPPLPPERTSGIGDSRPPSFHPNVSSSHENLEPETETESVVSLRRERPRRRDSSEHGAGGHRTGGPSRLERHLAGYESSSTLMTSELESTSLGDSDEEDTMSRFSSSTEQSSASRLLKRHRRRRKQRPPRLERTSSFSSVTDSTMSLNIITVTLNMEKYNFLGISIVGQSNERGDGGIYIGSIMKGGAVAADGRIEPGDMLLQVNDMNFENMSNDDAVRVLRDIVHKPGPIVLTVAKCWDPSPQAYFTLPRNEPIQPIDPAAWVSHSAALTGTFPAYPGSSSMSTITSGSSLPDGCEGRGLSVHTDMASVTKAMAAPESGLEVRDRMWLKITIPNAFLGSDVVDWLYHHVEGFPERREARKYASGLLKAGLIRHTVNKITFSEQCYYVFGDLSGGCESYLVNLSLNDNDGSSGASDQDTLAPLPGATPWPLLPTFSYQYPAPHPYSPQPPPYHELSSYTYGGGSASSQHSEGSRSSGSTRSDGGAGRTGRPEERAPESKSGSGSESEPSSRGGSLRRGGEASGTSDGGPPPSRGSTGGAPNLRAHPGLHPYGPPPGMALPYNPMMVVMMPPPPPPVPPAVQPPGAPPVRDLGSVPPELTASRQSFHMAMGNPSEFFVDVM
# B3: E3 ubiquitin-protein ligase SMURF2 (Mus musculus), A2A5Z6 (parent)
# chain: B1 chain
# partner: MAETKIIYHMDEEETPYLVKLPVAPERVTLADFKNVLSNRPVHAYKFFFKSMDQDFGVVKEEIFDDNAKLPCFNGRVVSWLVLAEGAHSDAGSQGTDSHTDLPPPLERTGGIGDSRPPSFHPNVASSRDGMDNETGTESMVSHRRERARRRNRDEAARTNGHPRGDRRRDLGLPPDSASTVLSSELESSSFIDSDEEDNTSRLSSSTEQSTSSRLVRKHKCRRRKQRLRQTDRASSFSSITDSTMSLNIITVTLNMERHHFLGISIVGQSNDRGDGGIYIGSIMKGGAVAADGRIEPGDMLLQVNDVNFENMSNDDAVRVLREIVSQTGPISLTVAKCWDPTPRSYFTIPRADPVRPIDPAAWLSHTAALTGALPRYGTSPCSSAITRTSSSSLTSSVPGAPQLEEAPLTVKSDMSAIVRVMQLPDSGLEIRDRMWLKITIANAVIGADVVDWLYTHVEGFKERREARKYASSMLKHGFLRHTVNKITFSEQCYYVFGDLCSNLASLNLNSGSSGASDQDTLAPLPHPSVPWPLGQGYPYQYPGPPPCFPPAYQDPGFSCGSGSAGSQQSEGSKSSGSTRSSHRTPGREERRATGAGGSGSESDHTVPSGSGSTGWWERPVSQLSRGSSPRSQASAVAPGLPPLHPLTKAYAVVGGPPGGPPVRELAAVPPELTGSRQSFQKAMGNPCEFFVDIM
# B4: E3 ubiquitin-protein ligase SMURF2 (Mus musculus), A2A5Z6 (parent)
# chain: B1 chain
# partner: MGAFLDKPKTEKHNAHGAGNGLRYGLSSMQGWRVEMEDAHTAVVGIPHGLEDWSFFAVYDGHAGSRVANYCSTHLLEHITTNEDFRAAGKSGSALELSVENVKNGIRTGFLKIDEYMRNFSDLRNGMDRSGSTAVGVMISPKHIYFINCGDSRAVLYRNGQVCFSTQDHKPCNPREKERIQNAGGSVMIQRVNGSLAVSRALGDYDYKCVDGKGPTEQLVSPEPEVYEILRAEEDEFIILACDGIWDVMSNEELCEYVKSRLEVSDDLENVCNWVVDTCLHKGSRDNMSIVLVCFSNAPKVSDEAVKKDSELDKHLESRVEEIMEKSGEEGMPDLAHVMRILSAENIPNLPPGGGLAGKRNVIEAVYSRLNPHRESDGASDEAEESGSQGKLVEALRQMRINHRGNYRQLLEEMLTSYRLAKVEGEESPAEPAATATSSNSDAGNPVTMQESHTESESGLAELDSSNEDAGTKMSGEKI
# B5: E3 ubiquitin-protein ligase SMURF2 (Mus musculus), A2A5Z6 (parent)
# chain: B1 chain
# B6: E3 ubiquitin-protein ligase SMURF2 (Mus musculus), A2A5Z6 (parent)
# chain: B1 chain
# partner: B2 chain
# B7: E3 ubiquitin-protein ligase SMURF2 (Mus musculus), A2A5Z6 (parent)
# chain: B1 chain
# partner: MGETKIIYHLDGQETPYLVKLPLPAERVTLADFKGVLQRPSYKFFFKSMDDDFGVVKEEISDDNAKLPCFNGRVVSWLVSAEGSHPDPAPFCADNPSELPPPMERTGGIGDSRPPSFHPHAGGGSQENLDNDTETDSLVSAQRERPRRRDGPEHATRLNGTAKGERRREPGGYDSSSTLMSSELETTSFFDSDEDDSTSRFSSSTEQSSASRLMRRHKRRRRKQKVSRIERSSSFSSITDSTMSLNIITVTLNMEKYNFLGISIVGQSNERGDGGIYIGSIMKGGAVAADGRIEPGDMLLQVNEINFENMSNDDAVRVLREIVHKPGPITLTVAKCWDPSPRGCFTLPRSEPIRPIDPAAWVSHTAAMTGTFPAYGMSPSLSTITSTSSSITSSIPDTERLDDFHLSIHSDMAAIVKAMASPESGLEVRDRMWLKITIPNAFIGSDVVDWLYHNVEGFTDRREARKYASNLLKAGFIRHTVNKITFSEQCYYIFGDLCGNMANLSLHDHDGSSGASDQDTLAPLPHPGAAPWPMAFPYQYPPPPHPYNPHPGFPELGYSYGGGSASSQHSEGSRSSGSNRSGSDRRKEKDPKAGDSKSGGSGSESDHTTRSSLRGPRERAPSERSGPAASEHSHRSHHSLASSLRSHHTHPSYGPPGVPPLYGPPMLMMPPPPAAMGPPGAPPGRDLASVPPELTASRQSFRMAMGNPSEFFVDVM
# Variants of: B1
# Conditions: with nkd2_mouse Nkd2, Q8VE28
row,Variant,effect of a mutation on the interaction
1,C716A,decreasing interaction

# Variants of: B2
# Conditions: with smuf2_mouse Smurf2, A2A5Z6
row,Variant,effect of a mutation on the interaction
1,E499G,decreasing interaction

# Variants of: B2
# Conditions: with smuf2_mouse Smurf2, A2A5Z6
# Remark: another data set of the same source
row,Variant,effect of a mutation on the interaction
1,C501R,decreasing interaction

# Variants of: B3
# Conditions: with dvl1_mouse Dvl1, P51141
row,Variant,effect of a mutation on the interaction
1,C716A,decreasing interaction

# Variants of: B4
# Conditions: with ppm1b_human PPM1B
row,Variant,effect of a mutation on the interaction
1,C716A,decreasing interaction

# Variants of: B5
# Conditions: with elav1_human ELAVL1, Q15717
# elav1_human ELAVL1, Q15717, sequence (Q15717 whole entry): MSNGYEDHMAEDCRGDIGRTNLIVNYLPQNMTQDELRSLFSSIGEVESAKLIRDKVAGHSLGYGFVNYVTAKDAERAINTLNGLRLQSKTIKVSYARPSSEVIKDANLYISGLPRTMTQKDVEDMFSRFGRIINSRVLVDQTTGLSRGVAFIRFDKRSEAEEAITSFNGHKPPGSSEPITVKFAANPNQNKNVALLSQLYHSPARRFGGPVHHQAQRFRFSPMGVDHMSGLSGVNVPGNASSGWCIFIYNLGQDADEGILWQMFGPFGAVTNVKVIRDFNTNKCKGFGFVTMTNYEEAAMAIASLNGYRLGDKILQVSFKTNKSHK
row,Variant,effect of a mutation on the interaction
1,C716A,decreasing interaction

# Variants of: B5
# Conditions: with rac1_mouse Rac1, P63001
row,Variant,effect of a mutation on the interaction
1,C716A,decreasing interaction

# Variants of: B5
# Conditions: with tp53b_mouse Tp53bp1, P70399
# tp53b_mouse Tp53bp1, P70399, sequence (P70399 whole entry): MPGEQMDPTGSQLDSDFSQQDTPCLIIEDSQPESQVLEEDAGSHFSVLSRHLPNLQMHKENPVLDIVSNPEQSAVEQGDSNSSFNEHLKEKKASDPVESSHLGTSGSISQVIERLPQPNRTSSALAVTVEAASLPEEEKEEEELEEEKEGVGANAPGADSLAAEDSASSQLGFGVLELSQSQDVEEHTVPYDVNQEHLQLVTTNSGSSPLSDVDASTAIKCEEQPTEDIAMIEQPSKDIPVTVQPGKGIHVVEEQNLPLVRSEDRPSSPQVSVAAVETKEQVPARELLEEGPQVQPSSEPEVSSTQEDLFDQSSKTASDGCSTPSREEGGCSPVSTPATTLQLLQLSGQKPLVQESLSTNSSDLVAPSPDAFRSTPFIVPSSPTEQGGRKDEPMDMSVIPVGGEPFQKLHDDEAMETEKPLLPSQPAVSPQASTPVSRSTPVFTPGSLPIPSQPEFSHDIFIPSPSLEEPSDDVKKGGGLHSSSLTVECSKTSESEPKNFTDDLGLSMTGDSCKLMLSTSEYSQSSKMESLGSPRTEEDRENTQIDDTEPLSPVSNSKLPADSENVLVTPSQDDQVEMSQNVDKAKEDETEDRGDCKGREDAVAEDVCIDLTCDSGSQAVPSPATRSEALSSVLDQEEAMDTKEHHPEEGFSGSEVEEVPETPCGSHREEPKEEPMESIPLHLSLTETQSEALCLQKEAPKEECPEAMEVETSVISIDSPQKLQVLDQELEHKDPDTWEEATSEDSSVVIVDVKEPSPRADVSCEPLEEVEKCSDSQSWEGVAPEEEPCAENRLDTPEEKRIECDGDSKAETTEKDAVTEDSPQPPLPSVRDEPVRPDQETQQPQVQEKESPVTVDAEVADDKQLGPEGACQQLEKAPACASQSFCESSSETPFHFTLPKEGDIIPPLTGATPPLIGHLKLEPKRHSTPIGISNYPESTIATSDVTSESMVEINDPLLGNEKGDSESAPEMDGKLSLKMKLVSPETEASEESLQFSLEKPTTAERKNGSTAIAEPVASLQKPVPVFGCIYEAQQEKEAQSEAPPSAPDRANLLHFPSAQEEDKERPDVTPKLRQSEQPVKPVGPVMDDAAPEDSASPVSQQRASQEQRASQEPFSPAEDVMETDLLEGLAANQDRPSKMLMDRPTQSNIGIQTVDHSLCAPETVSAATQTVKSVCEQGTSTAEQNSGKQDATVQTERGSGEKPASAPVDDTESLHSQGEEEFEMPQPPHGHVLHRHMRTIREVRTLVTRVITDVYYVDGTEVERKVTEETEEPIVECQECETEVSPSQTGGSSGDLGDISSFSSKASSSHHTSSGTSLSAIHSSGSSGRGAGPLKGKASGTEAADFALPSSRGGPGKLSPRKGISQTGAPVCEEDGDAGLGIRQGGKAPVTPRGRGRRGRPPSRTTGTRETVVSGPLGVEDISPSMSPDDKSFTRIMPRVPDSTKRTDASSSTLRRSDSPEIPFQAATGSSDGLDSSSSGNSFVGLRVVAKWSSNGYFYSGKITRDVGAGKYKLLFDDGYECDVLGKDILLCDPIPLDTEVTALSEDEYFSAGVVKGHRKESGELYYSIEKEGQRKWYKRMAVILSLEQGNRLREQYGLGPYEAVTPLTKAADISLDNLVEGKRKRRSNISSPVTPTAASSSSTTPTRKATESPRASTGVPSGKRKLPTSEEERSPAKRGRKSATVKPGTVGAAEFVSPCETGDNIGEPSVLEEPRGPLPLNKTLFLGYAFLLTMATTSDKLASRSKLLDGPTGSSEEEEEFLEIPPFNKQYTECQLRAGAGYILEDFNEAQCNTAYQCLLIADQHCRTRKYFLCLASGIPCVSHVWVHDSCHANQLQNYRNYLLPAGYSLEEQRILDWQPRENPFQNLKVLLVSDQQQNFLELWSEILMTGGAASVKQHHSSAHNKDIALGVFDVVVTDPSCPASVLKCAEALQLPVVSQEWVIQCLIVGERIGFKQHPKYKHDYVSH
row,Variant,effect of a mutation on the interaction
1,C716A,decreasing interaction

# Variants of: B6
# Conditions: with dvl2_human DVL2, O14641
row,Variant,effect of a mutation on the interaction
1,C716A,decreasing interaction

# Variants of: B7
# Conditions: with dvl3_human DVL3, Q92997
row,Variant,effect of a mutation on the interaction
1,C716A,decreasing interaction
